B1: hu9F5VHv10/hu9F5VLv9_DIM1 (antibody, V domains shown)
VH: EVQLVQSGAEVKKPGATVKISCKASGFNIKDDYMNWVKQRPEKGLEWIGWIDPENGDTEYASKFQGRATMTADTSTNTAYMELSSLRSEDTAVYYCTTSNGWGQGTLVTVSS
VL: DIQMTQSPFSLPVTPGESASISCRSSKSLSHSNGITYLYWYQQKPGQSPQLLIYQGSNGASGVPDRFSSSGSGTDFTLKISRVEAEDVGVYYCAQNIELPLTFGQGTKLEIK
B2: hu9F5VHv10/hu9F5VLv9_DIM20 (antibody, V domains shown)
VH: B1 VH
VL: B1 VL with G56I
B3: hu9F5VHv10/hu9F5VLv9_DIM8 (antibody, V domains shown)
VH: B1 VH
VL: B1 VL with S30G, G56K, G59R
B4: hu9F5VHv10/hu9F5VLv9_DIM13 (antibody, V domains shown)
VH: B1 VH
VL: B1 VL with S30G, Q42G, G59R, I97L
B5: hu9F5VHv10/hu9F5VLv9_DIM5 (antibody, V domains shown)
VH: B1 VH
VL: B1 VL with S30G, G59R
B6: hu9F5VHv10/hu9F5VLv9_DIM4 (antibody, V domains shown)
VH: B1 VH
VL: B1 VL with G59R, I97G
B7: hu9F5VHv10/hu9F5VLv9_DIM11 (antibody, V domains shown)
VH: B1 VH
VL: B1 VL with S30G, Q42G, G59R
notes: also called H10L9-DIM11; H10L9DIM11
B8: hu9F5VHv10/hu9F5VLv9_DIM19 (antibody, V domains shown)
VH: B1 VH
VL: B1 VL with Q42I, G56I, G59R
B9: hu9F5VHv10/hu9F5VLv9_DIM2 (antibody, V domains shown)
VH: B1 VH
VL: B1 VL with G59R
B10: hu9F5VHv10/hu9F5VLv9_DIM10 (antibody, V domains shown)
VH: B1 VH
VL: B1 VL with G56K
B11: mouse 9F5 antibody (antibody, mouse IgG1, V domains shown)
VH: EVQLQQSGAELVRPGASVKLSCTASGFNIKDDYMNWVKQRPERGLEWIGWIDPENGDTEYASKFQGKATMTADTSSNTAYLQFSSLTSEDTAVYYCTTSNGWGQGTLVTVST
VL: DIVMTQAAFSNPVTLGTSASISCRSSKSLLHSNGITYLYWYLQKPGQSPQLLIYQMSNLASGVPDRFSSSGSGTDFTLRISRVEAEDVGVYYCAQNLELPLTFGAGTKLELK
modifications: here or on the partner: pHrodo label

The Kd is a measure of binding affinity in units of concentration. Broadly, the koff is the rate constant with which the complex falls apart. As usually defined, the kon is the rate constant with which the complex forms.

Residue numbers refer to the chain shown, from its start.

The target in one test is T1, recombinant human 4R0N tau (human, UniProt P10636 2-758).
T1 construct: also called recombinant 4R0N human tau; P10636-6
T1 sequence (P10636 other isoform, or with tags, fused parts or gaps limits assumed): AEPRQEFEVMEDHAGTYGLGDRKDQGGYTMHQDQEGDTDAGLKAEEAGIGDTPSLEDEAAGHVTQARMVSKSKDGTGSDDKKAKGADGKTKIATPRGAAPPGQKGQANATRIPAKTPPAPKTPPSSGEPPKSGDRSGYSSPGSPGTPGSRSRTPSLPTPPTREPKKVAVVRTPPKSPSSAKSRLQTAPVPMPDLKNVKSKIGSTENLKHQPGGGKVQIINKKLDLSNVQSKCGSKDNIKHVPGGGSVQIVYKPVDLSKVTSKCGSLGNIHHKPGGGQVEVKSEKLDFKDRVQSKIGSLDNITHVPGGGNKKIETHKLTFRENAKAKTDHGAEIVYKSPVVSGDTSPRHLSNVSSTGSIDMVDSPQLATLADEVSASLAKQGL
Briefly: SPR Biacore T200; antibody captured by anti-human Fc; tau as analyte; global 1:1 fit. The method, then: Target binding analysis was performed using a Biacore T200 to compare the binding affinity of humanized 9F5 variants to recombinant human 4R0N tau. Anti-Human Fc antibody was immobilized on sensor chip CM3 via amine coupling, and humanized 9F5 variants were captured to equivalent levels. Various concentrations of recombinant 4R0N human tau (ranging from 0.02 nM to 12.5 nM) were passed over the captured ligand at 50 μL/min in running buffer (HBS+0.05% P-20, 1 mg/mL BSA) for 180 seconds association/420 seconds dissociation as a single cycle. Data was blank subtracted to both an irrelevant sensor not containing antibody and 0 nM analyte concentration. Analysis was performed using a global 1:1 fit with Biacore Evaluation software.
(In SPR one partner is held on a chip, and binding of the other changes the refractive index at the surface.)
For the molecule B1, the Kd turned out to be 1.47 nM, the koff was determined as 0.00395 s⁻¹ and the on-rate (kon) came to 2.69e+06 M⁻¹ s⁻¹.

Take B2: the Kd was 9.62 nM, the koff came out at 0.0334 s⁻¹ and the kon came to 3.47e+06 M⁻¹ s⁻¹.

On to B3, for which the Kd amounted to 0.859 nM, the koff is 0.00232 s⁻¹ and the kon was 2.71e+06 M⁻¹ s⁻¹.

As to B4, the equilibrium dissociation constant (Kd) came out at 0.508 nM, the koff amounted to 0.00116 s⁻¹ and the on-rate constant (kon) amounted to 2.28e+06 M⁻¹ s⁻¹.

As to B5, the Kd is 0.542 nM, the koff is 0.000919 s⁻¹ and the kon came out at 1.7e+06 M⁻¹ s⁻¹.

As to B6, the Kd was found to be 1.74 nM, the koff is 0.00439 s⁻¹ and the kon was 2.53e+06 M⁻¹ s⁻¹.

With B7, the Kd worked out at 0.163 nM, the koff was 0.000287 s⁻¹ and the kon turned out to be 1.76e+06 M⁻¹ s⁻¹.

Consider B8, for which the Kd is 1.97 nM, the koff turned out to be 0.00688 s⁻¹ and the kon amounted to 3.49e+06 M⁻¹ s⁻¹.

Take B9: the Kd came to 0.679 nM, the koff stood at 0.00184 s⁻¹ and the kon was found to be 2.72e+06 M⁻¹ s⁻¹.

As for B10, the Kd stood at 3.77 nM, the koff came out at 0.026 s⁻¹ and the kon came out at 6.89e+06 M⁻¹ s⁻¹.

For a further test, the target named is pHrodo-labeled tau P301L soluble oligomer, P10636. The test can be described thus: cell-based or functional assay.
pHrodo-labeled tau P301L soluble oligomer, P10636, sequence (P10636 other isoform, or with tags, fused parts or gaps P301L P301L): as the sequence (P10636 other isoform, or with tags, fused parts or gaps limits assumed) above
B11 came in with an internalized pHrodo-tau in B103 cells (FACS), antibody at 0.061 µg/mL (% of maximum signal) of 78.1; an internalized pHrodo-tau in B103 cells (FACS), antibody at 0.244 µg/mL (% of maximum signal) of 71.7; an internalized pHrodo-tau in B103 cells (FACS), antibody at 0.98 µg/mL (% of maximum signal) of 71; an internalized pHrodo-tau in B103 cells (FACS), antibody at 3.9 µg/mL (% of maximum signal) of 35.9. This molecule also had an internalized pHrodo-tau in B103 cells (FACS), antibody at 15.625 µg/mL (% of maximum signal) of 24.2 and an internalized pHrodo-tau in B103 cells (FACS), antibody at 62.5 µg/mL (% of maximum signal) of 18.1.
